Literature values, collected in publication PMC7229808.
pKd: −log10 of the molar value.

Target: PCNA (Saccharomyces cerevisiae) (UniProt P15873)
Experiment: NMR titration

Chain of UniProt P15873 (P15873 whole entry): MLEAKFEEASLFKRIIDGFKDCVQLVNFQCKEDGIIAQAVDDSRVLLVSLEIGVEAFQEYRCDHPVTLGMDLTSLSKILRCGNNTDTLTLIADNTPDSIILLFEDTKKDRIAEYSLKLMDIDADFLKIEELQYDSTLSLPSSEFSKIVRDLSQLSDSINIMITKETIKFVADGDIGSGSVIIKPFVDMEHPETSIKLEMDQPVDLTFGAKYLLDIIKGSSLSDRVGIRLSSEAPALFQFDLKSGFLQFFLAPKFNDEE

Substance: Rev1 BRCT (from UniProt P12689)
- pKd: 4.11
